Measurements from paper PMC4215650 (Nature, 2014).

B1: Ring1B(2-116), as it stands in the crystal (domain or fragment)
chain: SQAVQTNGTQPLSKTWELSLYELQRTPQEAITDGLEIVVSPRSLHSELMCPICLDMLKNTMTTKECLHRFCADCIITALRSGNKECPTCRKKLVSKRSLRPDPNFDALISKIYPS

Experiments:
Experiment in all cases: crystal structure
[1] = target: histone H2B, Xenopus, in the nucleosome core particle (Xenopus, UniProt P02281 5-126)
[2] = target: B1
[3] = target: histone H4, Xenopus, in the nucleosome core particle (Xenopus, UniProt P62799 2-103)

binding result [1] | binding result [2] | binding result [3] | Binder
binds |  |  | B1
binds | binds | binds | Bmi1(2-109), as it stands in the crystal (domain or fragment) HRTTRIKITELNPHLMCVLCGGYFIDATTIIECLHSFCKTCIVRYLETSKYCPICDVQVHKTRPLLNIRSDKTLQDIVYKLVPGLFKNEMKRRRDFYAAHPSADAANG
